Experimental data reported in PMC6344876.

What was measured:
[1] = tested on: eIF2 heterotrimer with eIF2γ-I318M (His-tagged) (Saccharomyces cerevisiae); experiment: filter binding; settings: aminoacylated with Met; Filter binding: 25 mM HEPES-KOH pH 7.6, 2.5 mM Mg(OAc)2, 80 mM KOAc, 2 mM DTT, 0.5 mM GDPNP-Mg2+, 1 nM tRNA, 3.125-200 nM eIF2, 26 C; pull-down: 20 mM Tris-HCl …
[2] = tested on: eIF2 heterotrimer (WT eIF2γ, His-tagged) (Saccharomyces cerevisiae); experiment: filter binding; settings: aminoacylated with Met; Filter binding: 25 mM HEPES-KOH pH 7.6, 2.5 mM Mg(OAc)2, 80 mM KOAc, 2 mM DTT, 0.5 mM GDPNP-Mg2+, 1 nM tRNA, 3.125-200 nM eIF2, 26 C; pull-down: 20 mM Tris-HCl …

**Q.** Which results are given for “[35S]Met-tRNAiMet (in vitro transcribed)”?
**A.** Kd [1]: 98 nM; Kd [2]: 18 nM
